Source: patent US20160002344A1 (ONCOMED PHARMACEUTICALS, published 2016)

What was measured:
[1] = molecular target: T1, recombinant human RSPO1-Fc fusion protein (human, UniProt Q2MKA7 21-263); experiment: SPR (Biacore 2000), RSPO1-Fc immobilized on CM5 chip, antibody injected 100 nM to 0.78 nM
T1 construct: not shown: human Fc region
Description: (§1) The KD of h89M5-H2L2 was determined using a Biacore 2000 system from Biacore LifeSciences (GE Healthcare). Recombinant human RSPO1-Fc or mouse RSPO1-Fc proteins were immobilized on CM5 chips using standard amine-based chemistry (NHS/EDC). The antibodies were serially diluted 2-fold from 100 nM to 0.78 nM in HBS-P (0.01M HEPES pH7.4, 0.15M NaCl, 0.005% v/v Surfactant P20) and were injected over the chip surface. Kinetic data were collected over time and were fit using the simultaneous global fit equation to yield affinity constants (KD values) for each antibody.

[2] = molecular target: T2, recombinant mouse RSPO1-Fc protein (mouse, UniProt Q9Z132 21-265, limits assumed); experiment: as above
T2 construct: Construct not described; not shown: Fc; not described
Description: as §1

T2 sequence (Q9Z132 21-265 limits assumed): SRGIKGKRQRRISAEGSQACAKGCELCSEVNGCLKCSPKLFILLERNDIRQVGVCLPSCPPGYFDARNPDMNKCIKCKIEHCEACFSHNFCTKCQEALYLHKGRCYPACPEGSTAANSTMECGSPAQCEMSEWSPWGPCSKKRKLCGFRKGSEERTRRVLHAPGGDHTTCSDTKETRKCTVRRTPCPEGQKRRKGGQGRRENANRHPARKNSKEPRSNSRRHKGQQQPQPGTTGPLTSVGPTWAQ
T1 sequence (Q2MKA7 21-263): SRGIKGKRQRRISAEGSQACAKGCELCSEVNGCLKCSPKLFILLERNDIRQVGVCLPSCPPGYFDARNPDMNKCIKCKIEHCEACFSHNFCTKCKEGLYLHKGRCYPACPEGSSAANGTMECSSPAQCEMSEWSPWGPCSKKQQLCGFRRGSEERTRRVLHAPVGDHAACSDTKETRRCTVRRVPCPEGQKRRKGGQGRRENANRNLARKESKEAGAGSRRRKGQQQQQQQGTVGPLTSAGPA

Kd [1]: < 0.1 nM
Kd [2]: < 0.1 nM
B1: humanized anti-RSPO1 antibody h89M5-H2L2 (antibody, human IgG2, kappa, V domains shown)
VH: QVQLVQSGAEVKKPGASVKVSCKTSGYTFTGYTMHWVRQAPGQRLEWMGGINPNNGGTTYNQNFKGRVTITRDTSASTAYMELSSLRSEDTAVYYCARKEFSDGYYFFAYWGQGTLVTVSS
VL: DIQMTQSPSSLSASVGDRVTITCKASQDVIFAVAWYQQKPGKAPKLLIYWASTRHTGVPSRFSGSGSGTDYTLTISSLQPEDFATYYCQQHYSTPWTFGGGTKVEIKR
notes: also called humanized 89M5; 89M5-H2 with 89M5-L2
